This assay concerns the target HLA-A*02:01 on the surface of T2 cells. As to the kind of experiment: FACS, anti-HLA antibody staining of peptide-pulsed T2 cells (% HLA-A*02+). The conditions noted are these: peptide 50 μM. For orientation: A flow cytometer gives signals particle by particle.
The mark [1] stands for this setting: parent: est. 77, read off a plot.

Ten substances from paper PMC11546159 can be followed below.

For HPV16 E6 29-38 peptide C9A, the response is, setting by setting: (parent: 79) 60%; under setting [1], 58%.
On to HPV16 E6 29-38 peptide D4A, for which, under “parent: 79”, the response worked out at 1.9%.
In the case of HPV16 E6 29-38 peptide E8A, the response came out at 74% (parent: 79) and 76% under setting [1].
Take HPV16 E6 29-38 peptide H3A: the response is 84% (parent: 79) and 81% under setting [1].
Turning to HPV16 E6 29-38 peptide I2A, the response (parent: 79) came out at 2%.
In the case of HPV16 E6 29-38 peptide I5A, the response runs as follows: (parent: 79) 33%; under setting [1], 34%.
Consider HPV16 E6 29-38 peptide I6A, for which the response was 71% (parent: 79) and 69% under setting [1].
Turning to HPV16 E6 29-38 peptide L7A, for the setting “parent: 79”, the response stood at 2.4%.
In the case of HPV16 E6 29-38 peptide T1A, the response by setting is: (parent: 79) 79%; under setting [1], 79%.
As to HPV16 E6 29-38 peptide V10A, where the note is “parent: 79”, the response amounted to 2%.
